Target: T1, human TRADD death domain (199-312) (human, UniProt Q15628 199-312)
T1 sequence: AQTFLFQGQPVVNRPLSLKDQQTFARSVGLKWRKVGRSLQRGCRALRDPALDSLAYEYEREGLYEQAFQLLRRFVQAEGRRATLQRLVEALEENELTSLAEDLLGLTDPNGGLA
Assay: NMR solution structure

B1: human p75 neurotrophin receptor death domain (330-427) (domain or fragment)
chain: KGDGGLYSSLPPAKREEVEKLLNGSAGDTWRHLAGELGYQPEHIDSFTHEACPVRALLASWATQDSATLDALLAALRRIQRADLVESLCSESTATSPV
B1: binds.
